In paper PMC8050884:

Experiments:
[1] = biological target: SARS-CoV-2 spike trimer (aa 1-1208, furin site mutated, K986P/V987P) fused to human resistin (aa 23-108), FLAG-(His)6 (SARS-CoV-2 | human) (UniProt P0DTC2); assay: SEC-MALS; SEC-UPLC in PBS + 0.02% Tween-20 on Acquity BEH450 column coupled to MALS detector and refractometer; data not shown
[2] = biological target: soluble trimeric SARS-CoV-2 spike protein ectodomain (residues 1-1211) with phage foldon trimerization motif, 6xHis tag and AviTag (SARS-CoV-2 | not stated) (UniProt P0DTC2); assay: negative stain electron microscopy

Row | Substance | stoichiometry N [1] | stoichiometry N [2]
1 | SARS-CoV-2 spike trimer (aa 1-1208, furin site mutated, K986P/V987P) fused to human resistin (aa 23-108), FLAG-(His)6 (from UniProt P0DTC2;Q9HD89) | 3 | –
2 | soluble trimeric SARS-CoV-2 spike protein ectodomain (residues 1-1211) with phage foldon trimerization motif, 6xHis tag and AviTag (from UniProt P0DTC2 14-1211) | – | 3
